Like-named read-outs stand apart in the source and are kept apart here.
What was measured:
Assay type in all cases: biochemical
[1] = Saccharification assay (bagasse assay) with and without β-glucosidase (Example 1); conditions: T. reesei CBH I variants; activity without β-glucosidase (BG) relative to with BG
Description: This assay measures the activity of CBH I on bagasse, a lignocellulosic substrate. Reactions were run in 10 ml vials with 5% dilute acid pretreated bagasse (250 mg solids per 5 ml reaction). Each reaction contained 4 mg CBH I enzyme/g solids, 200 mM MES pH 6, kanamycin, and chloramphenicol. Reactions were incubated at 35° C. in hybridization incubators (Robbins Scientific), rotating at 20 RPM. Time points were taken by transferring a sample of homogenous slurry (150 μl) into a 96-well deep well plate and quenching the reaction with stop buffer (450 μl of 500 mM sodium carbonate, pH 10). Time point measurements were taken every 24 hours for 72 hours.
Tolerance to cellobiose (or inhibition caused by cellobiose) was tested in two ways in the CBH I assays. A direct-dose tolerance method can be applied to all of the CBH I assays (i.e., 4-MUL, PASC, and/or bagasse assays), and entails the exogenous addition of a known amount of cellobiose into assay mixtures. A different indirect method entails the addition of an excess amount of β-glucosidase (BG) to PASC and bagasse assays (typically, 1 mg β-glucosidase/g solids loaded). BG will enzymatically hydrolyze the cellobiose generated during these assays; therefore, CBH I activity in the presence of BG can be taken as a measure of activity in the absence of cellobiose. Furthermore, when activity in the presence and absence of BG are similar, this indicates tolerance to cellobiose.

[2] = 4-MUL cellobiose tolerance/inhibition assay, dose-response IC50 (Example 2)
Procedure, shortened: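 CBH I variant supernatants (5 μg/mL final, or undiluted if lower) on 0.5 mM 4-MUL in 100 mM MES pH 6 with 25 mM gluconolactone, fluorescence ex/em 365/450 nm. Activity measured at 6–8 cellobiose levels up to 100 mM; IC50 from four-parameter fit, bottom constrained to knockout background.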

[3] = 4-MUL assay, specific activity (Example 2)
Procedure, shortened: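 CBH I variant supernatants (5 μg/mL final) hydrolysed 0.5 mM 4-MUL in 100 mM MES pH 6 with 25 mM gluconolactone to block BG, with or without cellobiose. Fluorescence (ex/em 365/450 nm) followed over the first 15 min for initial rates, plus a 1 h endpoint before and after carbonate quench. Specific activity from 4-MU standards and HPLC protein quantification.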

[4] = Secondary screening, CBH I levels normalized to 5 μg/mL, cellobiose range 0.00085-100 mM, read-out: IC50
[5] = secondary screening, CBH I levels normalized to 5 μg/mL, cellobiose range 0.0001-100 mM, read-out: Average IC50
[6] = 411 single substitution, averaged IC50 from Tables 8-11, read-out: 411— Measured (merged IC50)
[7] = 268 single substitution, averaged IC50 from Tables 8-11, read-out: 268— Measured (merged IC50)

Molecule | Tolerance to cellobiose accumulation % Activity in Bagasse Assay (+/−BG) [1] | IC50 [2, 4] | IC50 [2, 5] | other results
R268K: T. reesei CBH I with an R268K substitution (protein, listed as Trichoderma reesei) MYRKLAVISAFLATARAQSACTLQSETHPPLTWQKCSSGGTCTQQTGSVVIDANWRWTHATNSSTNCYDGNTWSSTLCPDNETCAKNCCLDGAAYASTYGVTTSGNSLSIGFVTQSAQKNVGARLYLMASDTTYQEFTLLGNEFSFDVDVSQLPCGLNGALYFVSMDADGGVSKYPTNTAGAKYGTGYCDSQCPRDLKFINGQANVEGWEPSSNNANTGIGGHGSCCSEMDIWEANSISEALTPHPCTTVGQEICEGDGCGGTYSDNKYGGTCDPDGCDWNPYRLGNTSFYGPGSSFTLDTTKKLTVVTQFETSGAINRYYVQNGVTFQQPNAELGSYSGNELNDDYCTAEEAEFGGSSFSDKGGLTQFKKATSGGMVLVMSLWDDYYANMLWLDSTYPTNETSSTPGAVRGSCSTSSGVPAQVESQSPNAKVTFSNIKFGPIGSTGNPSGGNPPGGNPPGTTTTRRPATTTGSSPGPTQSHYGQCGGIGYSGPTVCASGTTCQVLNPYYSQCL | 92% | 134 µM | 93 µM | –
411A: CBH I variant with site 411 mutated to alanine (protein, listed as Trichoderma reesei) QSACTLQSETHPPLTWQKCSSGGTCTQQTGSVVIDANWRWTHATNSSTNCYDGNTWSSTLCPDNETCAKNCCLDGAAYASTYGVTTSGNSLSIGFVTQSAQKNVGARLYLMASDTTYQEFTLLGNEFSFDVDVSQLPCGLNGALYFVSMDADGGVSKYPTNTAGAKYGTGYCDSQCPRDLKFINGQANVEGWEPSSNNANTGIGGHGSCCSEMDIWEANSISEALTPHPCTTVGQEICEGDGCGGTYSDNRYGGTCDPDGCDWNPYRLGNTSFYGPGSSFTLDTTKKLTVVTQFETSGAINRYYVQNGVTFQQPNAELGSYSGNELNDDYCTAEEAEFGGSSFSDKGGLTQFKKATSGGMVLVMSLWDDYYANMLWLDSTYPTNETSSTPGAVAGSCSTSSGVPAQVESQSPNAKVTFSNIKFGPIGSTGNPSGGNPPGGNPPGTTTTRRPATTTGSSPGPTQSHYGQCGGIGYSGPTVCASGTTCQVLNPYYSQCL | 94% | 1060 µM | 918 µM | IC50 ([2]; averaged IC50 values from Tables 8-11, read-out: measured IC50 of cellobiose (merged values)): 1170 µM
R268A: T. reesei CBH I with an R268A substitution (protein, listed as Trichoderma reesei) QSACTLQSETHPPLTWQKCSSGGTCTQQTGSVVIDANWRWTHATNSSTNCYDGNTWSSTLCPDNETCAKNCCLDGAAYASTYGVTTSGNSLSIGFVTQSAQKNVGARLYLMASDTTYQEFTLLGNEFSFDVDVSQLPCGLNGALYFVSMDADGGVSKYPTNTAGAKYGTGYCDSQCPRDLKFINGQANVEGWEPSSNNANTGIGGHGSCCSEMDIWEANSISEALTPHPCTTVGQEICEGDGCGGTYSDNAYGGTCDPDGCDWNPYRLGNTSFYGPGSSFTLDTTKKLTVVTQFETSGAINRYYVQNGVTFQQPNAELGSYSGNELNDDYCTAEEAEFGGSSFSDKGGLTQFKKATSGGMVLVMSLWDDYYANMLWLDSTYPTNETSSTPGAVRGSCSTSSGVPAQVESQSPNAKVTFSNIKFGPIGSTGNPSGGNPPGGNPPGTTTTRRPATTTGSSPGPTQSHYGQCGGIGYSGPTVCASGTTCQVLNPYYSQCL | 86% | 574 µM | 423 µM | –
R411K: T. reesei CBH I with an R411K substitution (protein, UniProt P62694 18-513, looked up, variant R411K) Exoglucanase 1: QSACTLQSETHPPLTWQKCSSGGTCTQQTGSVVIDANWRWTHATNSSTNCYDGNTWSSTLCPDNETCAKNCCLDGAAYASTYGVTTSGNSLSIGFVTQSAQKNVGARLYLMASDTTYQEFTLLGNEFSFDVDVSQLPCGLNGALYFVSMDADGGVSKYPTNTAGAKYGTGYCDSQCPRDLKFINGQANVEGWEPSSNNANTGIGGHGSCCSEMDIWEANSISEALTPHPCTTVGQEICEGDGCGGTYSDNRYGGTCDPDGCDWNPYRLGNTSFYGPGSSFTLDTTKKLTVVTQFETSGAINRYYVQNGVTFQQPNAELGSYSGNELNDDYCTAEEAEFGGSSFSDKGGLTQFKKATSGGMVLVMSLWDDYYANMLWLDSTYPTNETSSTPGAVKGSCSTSSGVPAQVESQSPNAKVTFSNIKFGPIGSTGNPSGGNPPGGNRGTTTTRRPATTTGSSPGPTQSHYGQCGGIGYSGPTVCASGTTCQVLNPYYSQCL | 89% | 3060 µM | 2080 µM | –
411Val (protein, UniProt P62694 18-513, looked up, variant R411V) Exoglucanase 1: QSACTLQSETHPPLTWQKCSSGGTCTQQTGSVVIDANWRWTHATNSSTNCYDGNTWSSTLCPDNETCAKNCCLDGAAYASTYGVTTSGNSLSIGFVTQSAQKNVGARLYLMASDTTYQEFTLLGNEFSFDVDVSQLPCGLNGALYFVSMDADGGVSKYPTNTAGAKYGTGYCDSQCPRDLKFINGQANVEGWEPSSNNANTGIGGHGSCCSEMDIWEANSISEALTPHPCTTVGQEICEGDGCGGTYSDNRYGGTCDPDGCDWNPYRLGNTSFYGPGSSFTLDTTKKLTVVTQFETSGAINRYYVQNGVTFQQPNAELGSYSGNELNDDYCTAEEAEFGGSSFSDKGGLTQFKKATSGGMVLVMSLWDDYYANMLWLDSTYPTNETSSTPGAVVGSCSTSSGVPAQVESQSPNAKVTFSNIKFGPIGSTGNPSGGNPPGGNRGTTTTRRPATTTGSSPGPTQSHYGQCGGIGYSGPTVCASGTTCQVLNPYYSQCL | – | – | – | 411— Measured Specific Activity (SA) ([3]; 411 single substitution): 0.65 μmol 4 MU/min/mg CBH I; 411— Δ SA* (change in specific activity; ratio of variant: WT) ([3]; 411 single substitution): 0.9; IC50 [2, 6]: 3160 µM
268Leu (protein, UniProt P62694 18-513, looked up, variant R268L) Exoglucanase 1: QSACTLQSETHPPLTWQKCSSGGTCTQQTGSVVIDANWRWTHATNSSTNCYDGNTWSSTLCPDNETCAKNCCLDGAAYASTYGVTTSGNSLSIGFVTQSAQKNVGARLYLMASDTTYQEFTLLGNEFSFDVDVSQLPCGLNGALYFVSMDADGGVSKYPTNTAGAKYGTGYCDSQCPRDLKFINGQANVEGWEPSSNNANTGIGGHGSCCSEMDIWEANSISEALTPHPCTTVGQEICEGDGCGGTYSDNLYGGTCDPDGCDWNPYRLGNTSFYGPGSSFTLDTTKKLTVVTQFETSGAINRYYVQNGVTFQQPNAELGSYSGNELNDDYCTAEEAEFGGSSFSDKGGLTQFKKATSGGMVLVMSLWDDYYANMLWLDSTYPTNETSSTPGAVRGSCSTSSGVPAQVESQSPNAKVTFSNIKFGPIGSTGNPSGGNPPGGNRGTTTTRRPATTTGSSPGPTQSHYGQCGGIGYSGPTVCASGTTCQVLNPYYSQCL | – | – | – | 268— Measured Specific Activity (SA) ([3]; 268 single substitution): 1.83 μmol 4 MU/min/mg CBH I; 268— Δ SA* (change in specific activity; ratio of variant: WT) ([3]; 268 single substitution): 2.4; IC50 [2, 7]: 450 µM
411Leu (protein, UniProt P62694 18-513, looked up, variant R411L) Exoglucanase 1: QSACTLQSETHPPLTWQKCSSGGTCTQQTGSVVIDANWRWTHATNSSTNCYDGNTWSSTLCPDNETCAKNCCLDGAAYASTYGVTTSGNSLSIGFVTQSAQKNVGARLYLMASDTTYQEFTLLGNEFSFDVDVSQLPCGLNGALYFVSMDADGGVSKYPTNTAGAKYGTGYCDSQCPRDLKFINGQANVEGWEPSSNNANTGIGGHGSCCSEMDIWEANSISEALTPHPCTTVGQEICEGDGCGGTYSDNRYGGTCDPDGCDWNPYRLGNTSFYGPGSSFTLDTTKKLTVVTQFETSGAINRYYVQNGVTFQQPNAELGSYSGNELNDDYCTAEEAEFGGSSFSDKGGLTQFKKATSGGMVLVMSLWDDYYANMLWLDSTYPTNETSSTPGAVLGSCSTSSGVPAQVESQSPNAKVTFSNIKFGPIGSTGNPSGGNPPGGNRGTTTTRRPATTTGSSPGPTQSHYGQCGGIGYSGPTVCASGTTCQVLNPYYSQCL | – | – | – | 411— Δ SA* (change in specific activity; ratio of variant: WT) ([3]; 411 single substitution): 0.2; IC50 [2, 6]: 6540 µM
268Phe (protein, UniProt P62694 18-513, looked up, variant R268F) Exoglucanase 1: QSACTLQSETHPPLTWQKCSSGGTCTQQTGSVVIDANWRWTHATNSSTNCYDGNTWSSTLCPDNETCAKNCCLDGAAYASTYGVTTSGNSLSIGFVTQSAQKNVGARLYLMASDTTYQEFTLLGNEFSFDVDVSQLPCGLNGALYFVSMDADGGVSKYPTNTAGAKYGTGYCDSQCPRDLKFINGQANVEGWEPSSNNANTGIGGHGSCCSEMDIWEANSISEALTPHPCTTVGQEICEGDGCGGTYSDNFYGGTCDPDGCDWNPYRLGNTSFYGPGSSFTLDTTKKLTVVTQFETSGAINRYYVQNGVTFQQPNAELGSYSGNELNDDYCTAEEAEFGGSSFSDKGGLTQFKKATSGGMVLVMSLWDDYYANMLWLDSTYPTNETSSTPGAVRGSCSTSSGVPAQVESQSPNAKVTFSNIKFGPIGSTGNPSGGNPPGGNRGTTTTRRPATTTGSSPGPTQSHYGQCGGIGYSGPTVCASGTTCQVLNPYYSQCL | – | – | – | 268— Δ SA* (change in specific activity; ratio of variant: WT) ([3]; 268 single substitution): 0.5; IC50 [2, 7]: 480 µM

Source: patent publication US20140287471A1, “VARIANT CBH I POLYPEPTIDES WITH REDUCED PRODUCT INHIBITION” (BP CORPORATION NORTN AMERICA INC., priority 2011, published 2014)
